The numbers were not newly measured in article PMC5934386, which cites them from elsewhere.

In general, pKd refers to the Kd on a negative log10 scale, so that one unit is a factor of ten.

pKd: −log10 of the molar value. Read-outs that look alike come from different tables or passages of the source.

Data set [1] deals with Ubiquitin (Homo sapiens) (UniProt P0CG47).
The target is the same in data set [2]. The experiment in a line: NMR.

Chain of yeast E2-25K (P21734 whole entry): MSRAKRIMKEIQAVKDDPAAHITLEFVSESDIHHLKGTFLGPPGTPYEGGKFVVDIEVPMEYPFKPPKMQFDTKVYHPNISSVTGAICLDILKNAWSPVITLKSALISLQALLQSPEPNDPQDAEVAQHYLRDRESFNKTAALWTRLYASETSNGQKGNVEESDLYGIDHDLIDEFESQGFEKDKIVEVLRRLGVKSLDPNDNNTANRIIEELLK
Chain of E2-25K UBA (P61086 157-200): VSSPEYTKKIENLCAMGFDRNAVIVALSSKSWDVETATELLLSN

In the case of E2-25K UBA (from UniProt P61086), the negative logarithm of the Kd (pKd) in data set [1] was 2.92.
In the case of yeast E2-25K (from UniProt P21734), the negative-log Kd (pKd) in data set [2] is 3.64.
